Source: patent US20230087785A1, “Leucine-Rich Repeat Kinase 2 Allosteric Modulators” (VIB VZW, priority 2020, published 2023)

B1: Nb39: LRRK2-specific Nanobody, SEQ ID NO: 10 (protein)
VHH: MAQVQLVESGGGLVQAGGSLRLSCRASGGTFSTYAMGWFRQVPGKERETVAAVKWSGDMTYYADSVKGRFTISRDNAKNTVYLQMNSLRPEDTAVYYCAARRGLSYYRGPSEYDYWGQGTQVTVSS
modifications: Nanobody CA14134
B2: Nb38: LRRK2-specific Nanobody, SEQ ID NO: 8 (protein)
VHH: MAQVQLVESGGGLVQPGGSLRLSCAASGSIRSIATSAWYRQPPGKQRELVAGISSGTTTNYADSVKGRFTISRDNAKNTVYLQMNSLKPEDTAVYYCHAWISGTWISGQGTQVTVSS
modifications: Nanobody CA14133

Experiments:
LRRK2(G2019S) = biological target: T1, LRRK2(G2019S) (Homo sapiens, UniProt Q5S007, G2019S/M2397T/R50H); assay: In cellulo phospho-Rab / LRRK2 autophosphorylation assay in HEK293T cells; format: cell-based; parameters: key to Functional Group (see FIG. 2d): Group 1: group 1: Nbs that inhibit both LRRK2 autophosphorylation and Rab10 phosphorylation in cells; Group 2: group 2: Nbs that inhibit only Rab10 phosphorylation; Group 3: group 3: Nbs that activate LRRK2 kinase activity; Group 4: group 4: Nbs that have no consistent/clear effect on LRRK2 kinase activity; conditions: for influence on LRRK2 kinase activity compared to the controls: Western blot; for Functional Group (see FIG. 2d): classification by effect on in cellulo LRRK2(G2019S) kinase activity
T1 construct: SF tag (FLAG + Twin-Strep); expressed in transfected cells; host or cells: HEK 293T
Method: (FIGS. 2A-2C) LRRK2(G2019S) and its effector Rab29 were overexpressed together with GFP-fused Nbs (“Fluobody”) in HEK293T cells. A negative control, where no Nb is overexpressed (“No Nb”) is also included. […] In rows labeled “pLRRK2”, LRRK2 pS1292 levels are determined by Western Blot using a site-specific anti-pLRRK2(pS1292) antibody (Abcam, ab203181) (shown at different times of development). In the rows labeled “pRAB10”, endogenous pT72-Rab10 levels are determined by Western Blot using the MJFF/Abcam antibody MJF-R21 (Abcam, ab230261) (shown at different times of development). The three lower rows contain controls of LRRK2 (rat anti-LRRK2, 24D8), Fluobody (rat anti-GFP) and Rab10 (rabbit anti-Rab10) expression levels. (FIG. 2D) Based on the results of panels (FIGS. 2A-2C) the Nbs can be divided into 4 functional groups, with group 1: Nbs that inhibit both LRRK2 autophosphorylation and Rab10 phosphorylation in cells; group 2: Nbs that inhibit only Rab10 phosphorylation; group 3: Nbs that activate LRRK2 kinase activity; group 4: Nbs that have no consistent/clear effect on LRRK2 kinase activity.
To assess the influence of the Nbs on LRRK2 kinase activity we monitored two physiologically and disease relevant activities of LRRK2: phosphorylation of the endogenous substrate Rab10 at position T72 and LRRK2 autophosphorylation at position S1292 [25-30]. […] In our cellular assay we thus co-expressed LRRK2(G2019S), Rab29 and the different Nb-GFP fusions in HEK 293T cells (FIG. 2a-c).
HEK 293T cells were cultured in DMEM (supplemented with 10% Fetal Bovine Serum, […] L-Glutamine and 0.5% Pen/Strep). For the assay, the cells were seeded onto six-well plates and transfected at a confluency of 50-70% with the individual Nb-GFP expression constructs, SF-tagged LRRK2(G2019S) and FLAG-HA Rab29 using a self-made polyethylenimine (PEI)-based transfection reagent. After 48 hrs cells were lysed in lysis buffer [30 mM Tris-HCL (pH7.4), 150 mM NaCl, 0.5% Nonident-P40, complete protease inhibitor cocktail, phosphatase inhibitor cocktail II & III (all Sigma)]. Lysates were cleared by centrifugation at 10,000×g and adjusted to a protein concentration of 1 μg/μl in 1× Laemmli Buffer. Samples were subsequently subjected to SDS PAGE and Western Blot analysis to determine LRRK2 pS1292 and Rab10 T72 phosphorylation levels, as described below. Total LRRK2 and Rab10 levels were determined as a reference.
For western blot analysis, protein samples were separated by SDS-PAGE using NuPAGE 10% Bis-Tris gels (Invitrogen) and transferred onto PVDF membranes (Thermo Fisher). To allow simultaneous probing for LRRK2 on the one hand and Rab and the Nb-GFP fusions on the other hand, membranes were cut horizontally at the 140 kDa MW marker band. After blocking non-specific binding sites with 5% non-fat dry milk in TBST (1 h, RT) (25 mM Tris, pH 7.4, 150 mM NaCl, 0.1% Tween-20), membranes were incubated overnight at 4° C. with primary antibodies at dilutions specified below. Phospho-specific antibodies were diluted in TBST/5% BSA (Roth GmbH). Non-phospho-specific antibodies were diluted in TBST/5% non-fat dry milk powder (BioRad). Phospho-Rab10 levels were determined by the site-specific rabbit monoclonal antibody anti-pRAB10([…]) (Abcam, ab230261) and LRRK2 autophosphorylation was determined by the site-specific rabbit monoclonal antibody anti-pLRRK2(pS1292) (Abcam, ab203181), both at a dilution of 1:2,000. Total LRRK2 levels were determined by the in-house rat monoclonal antibody anti-pan-LRRK2 (clone 24D8; 1:10,000). Total Rab10 levels were determined by the rabbit monoclonal antibody anti-RAB10/ERP13424 (Abcam, ab181367) at a dilution of 1:5,000. Nb-GFP fusion proteins were detected using the rat monoclonal antibody anti-GFP (clone 3H9, ChromoTec) at a dilution of 1:2,000. For detection, goat anti-rat IgG or anti-rabbit IgG HRP-coupled secondary antibodies (Jackson ImmunoResearch) were used at a dilution of 1:15,000 in TBST/5% non-fat dry milk powder. […]

endogenous LRRK2 = biological target: T2, endogenous LRRK2 (Mus musculus, UniProt Q5S006); assay: Colocalization of GFP-Nbs with endogenous LRRK2 on zymosan-containing phagosomes in RAW264.7 cells; format: cell-based; conditions: RAW264.7 cells transfected with GFP-Nbs, zymosan 30 mins, fixed cells
T2 construct: endogenous in cells; host or cells: RAW264.7
Method: RAW264.7 cells were transfected with GFP-fused Nbs and treated with Zymosan for 30 mins. Recruitment of LRRK2 and Nbs to the phagosomes was analyzed by immunofluorescence. FIG. 16A, images for Nb38, Nb22, Nb23, Nb40, No Nb, or Irrelevant (IRR) Nb treatments; FIG. 16B, images for Nb36, Nb42, Nb17, Nb39, Nb1, and Nb6 treatments. Scale bar=10 μm.
To test whether Nbs can trace and visualize endogenous LRRK2 in fixed cells, we generated green fluorescent protein (GFP)-Nb fusions (fluobodies) as described before. Recently, it was shown that LRRK2 is recruited to phagosomes upon induction of phagocytosis in immune cells. Therefore, RAW264.7 cells were transfected with these fluobodies and treated with killed yeast bioparticles “zymosan” to induce phagocytosis.
RAW264.7 cells (ATCC® SC-6003™) were transfected with peGFP-Nb constructs using JetOPTIMUS (Polyplus transfection) for 24 hrs and then stimulated with Zymosan particles (Sigma Aldrich) for 30 mins ([…]). Immunostaining for LRRK2 was performed as reported before. Briefly, cells fixed with 4% (w/v) paraformaldehyde for 30 min, followed by treatment with 100% EtOH at −20° C. Sampled were permeabilized with PBS/0.5% Triton X-100 and blocked with 3% BSA. Primary antibodies (rabbit anti-LRRK2, c41-2, Abcam and mouse anti-GFP, G6539, Sigma Aldrich) were diluted in PBS containing 3% BSA and 0.5% Triton X-100 and incubated overnight at 4° C. After three 5-min washes with PBS, secondary fluorescently labeled antibodies (anti-rabbit-Alexa fluor 568 and anti-mouse-Alexa fluor 488, Invitrogen) were added in a similar manner to primary antibodies and incubated for 1 hour at room temperature. Cells were washed twice with 1×PBS and mounted with Fluroshield antifade reagent with DAPI (SigmaAldrich). Images were acquired on Zeiss LSM800 confocal laser scanning microscope. Image analysis of z-scan was done using the Zeiss microscope software ZEN.

[1] = HEK 293T cells co-expressing LRRK2(G2019S), Rab29 and Nb-GFP

T1 sequence (Q5S007 whole entry R50H/G2019S/M2397T): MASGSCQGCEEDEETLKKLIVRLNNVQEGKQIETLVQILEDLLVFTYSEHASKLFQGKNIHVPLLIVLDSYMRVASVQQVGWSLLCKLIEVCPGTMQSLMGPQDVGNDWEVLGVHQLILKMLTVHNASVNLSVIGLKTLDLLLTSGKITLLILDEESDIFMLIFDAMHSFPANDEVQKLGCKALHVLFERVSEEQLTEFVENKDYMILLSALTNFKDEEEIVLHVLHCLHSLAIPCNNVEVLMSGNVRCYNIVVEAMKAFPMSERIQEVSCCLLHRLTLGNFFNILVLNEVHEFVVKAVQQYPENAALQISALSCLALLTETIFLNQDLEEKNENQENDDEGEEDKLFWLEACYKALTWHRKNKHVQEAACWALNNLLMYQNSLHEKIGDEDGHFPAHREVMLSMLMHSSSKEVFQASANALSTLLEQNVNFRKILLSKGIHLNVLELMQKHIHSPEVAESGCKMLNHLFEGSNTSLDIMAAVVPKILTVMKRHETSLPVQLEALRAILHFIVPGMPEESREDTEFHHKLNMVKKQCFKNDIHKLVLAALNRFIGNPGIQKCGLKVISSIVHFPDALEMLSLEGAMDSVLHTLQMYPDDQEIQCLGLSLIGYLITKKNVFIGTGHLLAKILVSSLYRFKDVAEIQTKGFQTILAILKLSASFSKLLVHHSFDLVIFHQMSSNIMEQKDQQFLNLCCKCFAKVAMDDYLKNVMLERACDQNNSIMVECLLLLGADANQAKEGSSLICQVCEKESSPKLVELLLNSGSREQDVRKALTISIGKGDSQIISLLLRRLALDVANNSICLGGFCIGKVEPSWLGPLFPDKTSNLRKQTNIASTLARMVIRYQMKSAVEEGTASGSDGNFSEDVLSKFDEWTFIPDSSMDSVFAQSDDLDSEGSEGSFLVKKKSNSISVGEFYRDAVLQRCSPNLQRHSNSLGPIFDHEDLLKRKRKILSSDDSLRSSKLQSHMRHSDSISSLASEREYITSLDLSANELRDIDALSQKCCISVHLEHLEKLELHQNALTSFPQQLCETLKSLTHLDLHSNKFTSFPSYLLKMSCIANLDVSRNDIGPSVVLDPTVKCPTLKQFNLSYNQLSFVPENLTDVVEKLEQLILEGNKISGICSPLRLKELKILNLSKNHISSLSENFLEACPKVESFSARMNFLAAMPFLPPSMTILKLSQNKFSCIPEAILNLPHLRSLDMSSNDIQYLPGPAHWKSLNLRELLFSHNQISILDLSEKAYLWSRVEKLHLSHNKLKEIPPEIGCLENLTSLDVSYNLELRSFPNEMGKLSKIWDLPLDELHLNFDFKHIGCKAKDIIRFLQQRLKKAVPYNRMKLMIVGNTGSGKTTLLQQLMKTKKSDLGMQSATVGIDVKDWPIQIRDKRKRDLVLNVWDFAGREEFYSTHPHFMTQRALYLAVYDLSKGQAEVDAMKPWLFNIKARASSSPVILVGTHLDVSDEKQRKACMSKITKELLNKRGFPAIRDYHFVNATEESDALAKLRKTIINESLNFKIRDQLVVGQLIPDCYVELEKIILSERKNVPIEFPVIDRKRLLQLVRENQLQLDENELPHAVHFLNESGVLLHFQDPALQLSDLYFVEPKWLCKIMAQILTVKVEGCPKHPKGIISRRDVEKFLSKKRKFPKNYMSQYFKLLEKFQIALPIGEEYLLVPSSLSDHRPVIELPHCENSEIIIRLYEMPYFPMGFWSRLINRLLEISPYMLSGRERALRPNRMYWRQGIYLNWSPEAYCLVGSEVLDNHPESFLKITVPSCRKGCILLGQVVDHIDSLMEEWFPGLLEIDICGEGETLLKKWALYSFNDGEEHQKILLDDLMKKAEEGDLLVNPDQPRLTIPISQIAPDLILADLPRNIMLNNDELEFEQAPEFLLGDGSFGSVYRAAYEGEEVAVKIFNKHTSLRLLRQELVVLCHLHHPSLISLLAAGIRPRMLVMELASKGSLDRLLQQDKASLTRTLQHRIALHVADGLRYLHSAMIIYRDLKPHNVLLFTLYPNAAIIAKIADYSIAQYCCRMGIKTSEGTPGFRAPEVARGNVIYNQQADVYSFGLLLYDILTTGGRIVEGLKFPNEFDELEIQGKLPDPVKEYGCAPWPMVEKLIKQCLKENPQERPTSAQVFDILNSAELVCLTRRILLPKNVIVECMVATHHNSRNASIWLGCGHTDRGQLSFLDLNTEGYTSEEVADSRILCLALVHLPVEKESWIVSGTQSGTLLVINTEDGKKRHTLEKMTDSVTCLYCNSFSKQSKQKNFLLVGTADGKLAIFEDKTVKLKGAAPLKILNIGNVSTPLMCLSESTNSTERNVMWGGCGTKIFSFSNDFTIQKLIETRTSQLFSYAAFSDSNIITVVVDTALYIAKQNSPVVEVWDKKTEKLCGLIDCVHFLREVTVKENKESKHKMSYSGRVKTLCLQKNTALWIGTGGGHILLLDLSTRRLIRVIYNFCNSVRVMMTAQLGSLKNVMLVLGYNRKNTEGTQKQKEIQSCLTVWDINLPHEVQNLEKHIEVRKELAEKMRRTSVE
T2 sequence (Q5S006 whole entry): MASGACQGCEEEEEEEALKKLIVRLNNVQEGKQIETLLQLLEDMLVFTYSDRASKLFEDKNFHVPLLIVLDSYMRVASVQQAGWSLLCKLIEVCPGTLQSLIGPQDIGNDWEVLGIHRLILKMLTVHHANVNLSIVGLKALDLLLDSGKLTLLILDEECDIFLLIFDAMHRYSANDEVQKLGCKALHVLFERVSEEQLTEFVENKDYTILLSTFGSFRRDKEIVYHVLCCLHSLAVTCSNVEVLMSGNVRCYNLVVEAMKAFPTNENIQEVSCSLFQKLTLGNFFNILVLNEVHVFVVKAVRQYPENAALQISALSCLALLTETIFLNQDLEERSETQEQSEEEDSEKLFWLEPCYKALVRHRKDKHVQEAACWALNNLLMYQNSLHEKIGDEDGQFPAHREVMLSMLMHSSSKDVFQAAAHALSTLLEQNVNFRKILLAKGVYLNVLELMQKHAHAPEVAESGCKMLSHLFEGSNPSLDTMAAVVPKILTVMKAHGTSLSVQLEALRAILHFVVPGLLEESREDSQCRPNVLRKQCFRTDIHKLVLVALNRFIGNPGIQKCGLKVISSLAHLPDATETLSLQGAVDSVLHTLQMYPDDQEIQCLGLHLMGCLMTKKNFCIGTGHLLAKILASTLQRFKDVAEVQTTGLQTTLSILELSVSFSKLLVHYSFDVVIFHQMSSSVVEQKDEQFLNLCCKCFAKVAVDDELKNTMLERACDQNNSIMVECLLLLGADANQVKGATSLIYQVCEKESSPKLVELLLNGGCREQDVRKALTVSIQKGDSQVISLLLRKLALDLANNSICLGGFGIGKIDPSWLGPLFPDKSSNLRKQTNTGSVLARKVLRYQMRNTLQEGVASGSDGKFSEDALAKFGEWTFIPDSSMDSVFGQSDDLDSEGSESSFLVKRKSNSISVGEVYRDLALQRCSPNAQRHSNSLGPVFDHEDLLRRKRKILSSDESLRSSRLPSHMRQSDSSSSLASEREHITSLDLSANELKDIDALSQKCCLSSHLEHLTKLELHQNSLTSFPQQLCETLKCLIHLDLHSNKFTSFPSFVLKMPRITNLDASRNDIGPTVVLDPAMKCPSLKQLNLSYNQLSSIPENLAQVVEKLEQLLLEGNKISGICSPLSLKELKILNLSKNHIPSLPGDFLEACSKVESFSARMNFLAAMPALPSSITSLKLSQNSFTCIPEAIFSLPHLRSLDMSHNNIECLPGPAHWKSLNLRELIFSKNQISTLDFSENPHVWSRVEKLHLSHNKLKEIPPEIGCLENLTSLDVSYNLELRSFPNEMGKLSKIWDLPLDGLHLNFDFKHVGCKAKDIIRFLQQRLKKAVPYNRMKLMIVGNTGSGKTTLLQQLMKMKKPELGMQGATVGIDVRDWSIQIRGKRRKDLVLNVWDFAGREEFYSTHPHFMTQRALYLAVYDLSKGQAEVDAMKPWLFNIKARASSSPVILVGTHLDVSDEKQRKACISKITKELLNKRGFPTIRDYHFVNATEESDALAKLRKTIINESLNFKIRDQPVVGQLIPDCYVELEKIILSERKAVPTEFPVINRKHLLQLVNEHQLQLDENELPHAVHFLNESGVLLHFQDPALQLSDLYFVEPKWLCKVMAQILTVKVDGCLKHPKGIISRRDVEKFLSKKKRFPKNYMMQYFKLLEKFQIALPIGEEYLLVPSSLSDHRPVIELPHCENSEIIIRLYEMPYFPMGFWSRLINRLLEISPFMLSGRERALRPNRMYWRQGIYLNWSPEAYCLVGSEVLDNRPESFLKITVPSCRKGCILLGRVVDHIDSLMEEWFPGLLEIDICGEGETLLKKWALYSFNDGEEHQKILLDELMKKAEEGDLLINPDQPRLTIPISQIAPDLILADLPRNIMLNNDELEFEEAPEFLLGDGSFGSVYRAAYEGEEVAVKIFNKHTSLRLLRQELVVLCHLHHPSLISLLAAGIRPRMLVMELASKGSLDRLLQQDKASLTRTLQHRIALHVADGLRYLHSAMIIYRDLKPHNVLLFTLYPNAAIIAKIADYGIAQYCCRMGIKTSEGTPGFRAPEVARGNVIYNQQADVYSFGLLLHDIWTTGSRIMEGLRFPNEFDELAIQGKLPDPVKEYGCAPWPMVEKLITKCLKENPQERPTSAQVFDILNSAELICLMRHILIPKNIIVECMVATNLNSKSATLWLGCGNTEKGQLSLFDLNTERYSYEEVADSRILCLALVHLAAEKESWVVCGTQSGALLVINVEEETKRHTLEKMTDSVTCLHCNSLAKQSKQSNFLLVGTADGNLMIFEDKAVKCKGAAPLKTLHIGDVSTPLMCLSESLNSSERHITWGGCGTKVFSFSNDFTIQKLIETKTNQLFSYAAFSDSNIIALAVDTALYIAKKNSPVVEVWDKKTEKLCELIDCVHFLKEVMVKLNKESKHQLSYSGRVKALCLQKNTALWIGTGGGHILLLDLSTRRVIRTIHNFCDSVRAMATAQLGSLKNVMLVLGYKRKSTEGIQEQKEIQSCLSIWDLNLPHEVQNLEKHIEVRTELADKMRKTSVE

Molecule | influence on LRRK2 kinase activity compared to the controls (LRRK2(G2019S); [1]) | Functional Group (see FIG. 2d) (LRRK2(G2019S)) | colocalization with endogenous LRRK2 on phagosomes (endogenous LRRK2) | LRRK2 autophosphorylation at position S1292 (LRRK2(G2019S); [1]) | Rab10 phosphorylation at position T72 (LRRK2(G2019S); endogenous Rab10, HEK 293T cells co-expressing LRRK2(G2019S), Rab29 and Nb-GFP)
B1 | no influence on LRRK2 kinase activity | Group 4 | LRRK2 recruitment to phagosomes was slightly detectable |  | 
B2 | strongly decreased LRRK2 autophosphorylation and/or Rab10 phosphorylation | Group 2 | clearly colocalized with LRRK2 on zymosan-containing phagosomes | inhibiting S1292 phosphorylation at a lesser extent | inhibit Rab10 phosphorylation
